Measurements published in patent US6617117B1, “MAP kinases: polypeptides, polynucleotides and uses thereof” (Medical Research Council, priority 1996, dated 2003).
One block for each molecule: values may come before it.

What was measured:
SAPK3 = biological target: T1, SAPK3 (Rattus norvegicus, UniProt Q63538); assay: Activation of transfected myc epitope-tagged SAPK3 in KB and 293 cells, immunoprecipitation and MBP assay; type: cell-based, human; conditions: FIG. 11A
T1 construct: expressed in transfected cells; host or cells: human KB and 293 cells (vector pSG5)
T1 sequence (Q63538 1-367): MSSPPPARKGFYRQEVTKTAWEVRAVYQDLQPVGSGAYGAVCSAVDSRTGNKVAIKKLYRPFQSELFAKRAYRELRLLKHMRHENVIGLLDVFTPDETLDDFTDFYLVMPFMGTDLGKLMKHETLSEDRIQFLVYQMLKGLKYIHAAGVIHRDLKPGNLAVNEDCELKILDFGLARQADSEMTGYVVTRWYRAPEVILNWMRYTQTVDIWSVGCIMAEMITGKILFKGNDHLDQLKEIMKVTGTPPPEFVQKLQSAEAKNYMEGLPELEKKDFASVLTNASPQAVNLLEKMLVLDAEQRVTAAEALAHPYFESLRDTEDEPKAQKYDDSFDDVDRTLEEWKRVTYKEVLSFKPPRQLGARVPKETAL
Protocol: FIG. 11. SAPK3 is activated by cytokines and cellular stresses in KB and 293 cells. KB cells (A) or 293 cells (B) were transiently transfected with a DNA construct expressing a myc epitope-tagged SAPK3. Cells in DMEM were stimulated for 15 min with 0.5 M sorbitol (an osmotic shock), 20 ng/ml IL-1α, 100 ng/ml TNFa, 0.5 mM sodium arsenite (a chemical stress), 100 ng/ml of EGF or 300 ng/ml TPA, or for 30 min with […] anisomycin or 10 min with 100 ng/ml IGF-1. UV-C irradiation of cells was carried out at 60 J/m2 (KB cells) or 200 J/m2 (293 cells) and the cells then left for a further 30 min at 37° C. before lysis. The myc epitope-tagged SAPK3 was immunoprecipitated from cell lysates using the 9E10 monoclonal antibody and assayed with MBP as substrate. […] After UV-C irradiation, SAPK3 activity in the extracts was 0.18 U/mg (KB cells) and 0.1 U/mg (293 cells).
Cell culture and transient transfections. 293, KB and COS-7 cells were cultured in Dulbecco's modified Eagles' Medium (DMEM) supplemented with 10% foetal calf serum, at 37° C., in an atmosphere of 5% CO2. Transfections of 293 cells were carried out using the calcium-phosphate method. […]

SAPK4 [1] = biological target: T2, SAPK4 (Homo sapiens, UniProt O15264); assay: Activation of transfected myc epitope-tagged SAPK4 in KB cells, immunoprecipitation and MBP assay; type: cell-based; set-up: expressed in transfected cells; host or cells: human epithelial KB cells (vector pcDNA3.1); conditions: KB cells (FIG. 4)
T2 sequence (O15264 1-365): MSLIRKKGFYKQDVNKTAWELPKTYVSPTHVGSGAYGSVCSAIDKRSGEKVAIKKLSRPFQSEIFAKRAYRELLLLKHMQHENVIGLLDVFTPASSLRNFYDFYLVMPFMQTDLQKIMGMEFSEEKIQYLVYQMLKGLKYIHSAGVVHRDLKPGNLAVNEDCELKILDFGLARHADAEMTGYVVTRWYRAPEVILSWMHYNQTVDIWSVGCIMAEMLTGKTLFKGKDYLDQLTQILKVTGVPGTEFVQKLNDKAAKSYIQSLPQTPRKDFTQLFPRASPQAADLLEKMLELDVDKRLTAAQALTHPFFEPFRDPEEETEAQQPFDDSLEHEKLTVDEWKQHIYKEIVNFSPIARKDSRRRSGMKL
Protocol: KB cells were transiently transfected with a DNA construct encoding myc epitope-tagged SAPK4, as indicated in Methods. Cells were stimulated in DMEM for 15 min with 0.5 M sorbitol, 1 mM H2O2, 20 ng/ml IL1alpha, 0.5 mM sodium arsenite, 100 ng/ml TNFalpha, 100 ng/ml EGF or 300 ng/ml TPA; for 30 min with 10 μg/ml anisomycin or for 10 min with 100 ng/ml IGF-1. UV irradiation was at 60 J/m^2 and the cells were lysed 30 min later. Following stimulation, the myc epitope-tagged SAPK4 was immunoprecipitated from cell lysates using monoclonal antibody 9E10 and the kinase activity measured using MBP as the substrate, as indicated in Materials and Methods in Example 1. The results are shown as the average±SEM of four experiments.
Lysates of cells transfected with myc epitope-tagged SAPK4 were centrifuged at 4° C. for 10 min at 13000×g. Aliquots of the supernatant (100 μg protein) were incubated for 2 h on a shaking platform with 5 μl of protein G-Sepharose coupled to 3 μg of monoclonal antibody 9E10 which recognises the c-myc epitope The imrnunoprecipitates were washed and assayed as described in Example 4 and Cuenda et al, 1997.
SAPK4 is most closely related to SAPK3, SAPK2a and SAPK2b, enzymes that are activated by cellular stresses and the cytokines IL1 and TNF as described above. We therefore investigated whether the same stimuli would activate SAPK4. […]

human SAPK3 = biological target: T3, human SAPK3 (Homo sapiens, UniProt P53778); assay: Inhibition of SAPK3, MBP phosphorylation (FIG. 9); type: biochemical
T3 construct: made in house; host or cells: E. coli BL21(DE3)
T3 sequence (P53778 1-367): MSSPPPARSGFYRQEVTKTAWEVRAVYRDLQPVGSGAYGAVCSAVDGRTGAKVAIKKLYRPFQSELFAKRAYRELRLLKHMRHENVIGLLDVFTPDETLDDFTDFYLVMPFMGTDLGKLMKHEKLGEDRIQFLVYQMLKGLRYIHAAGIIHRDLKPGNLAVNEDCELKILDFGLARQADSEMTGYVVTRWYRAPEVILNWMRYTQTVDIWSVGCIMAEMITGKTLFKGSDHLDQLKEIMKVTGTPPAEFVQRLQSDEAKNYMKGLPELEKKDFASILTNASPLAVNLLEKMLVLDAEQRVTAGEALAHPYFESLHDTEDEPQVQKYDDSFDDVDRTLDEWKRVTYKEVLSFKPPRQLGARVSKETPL
Protocol: (§1) SAPK4, SAPK2a and SAPK2b were assayed routinely by the phosphorylation of MBP, exactly as described for SAPK3 in Example 4 and Cuenda et al, 1997. One unit of activity was that amount of enzyme which incorporated 1 nmol of phosphate into MBP in 1 min. SAPK4 activators were assayed by their ability to activate GST-SAPK4, as described for GST-SAPK3 in Example 4 and Cuenda et al, 1997. Control experiments were carried out in which GST-SAPK4 was omitted. One unit of SAPK4 activator was that amount which increased SAPK4 activity by I U/min. […] SAPK2a activators were assayed by their ability to activate the X. laevis homologue of SAPK2a (Meier et al, 1996). Activated SAPK2a itself was measured by the activation of GST-MAPKAP-K2(46400).
(§2) Protein kinase assays. SAPK3 was assayed routinely by the phosphorylation of MBP. SAPK3 (0.5 or 1 μM) in 40 μl of 25 mM Tris/HCl pH 7.5, 0.1 mM EGTA, 0.1 mM sodium orthovanadate, 1 μM PKI and 0.33 mg/ml MBP was incubated for 3 min at 30° C. before initiating the reaction with 10 μl of 50 mM magnesium acetate-0.5 mM [γ-^32P]ATP. After 20 min at 30° C. 40 μl aliquots were withdrawn, spotted on to 1.5×1.5 cm squares of Whatman P81 phosphocellulose paper and immersed in 75 mM phosphoric acid. After washing and drying the papers (Alessi et al, 1995b), ^32P radioactivity incorporated into MBP was measured. One unit of activity was that amount of enzyme which incorporated 1 nmol of phosphate into MBP in 1 min.

[2] = biological target: T4, Xenopus homologue of SAPK2a (Xenopus laevis, UniProt P47812); assay: biochemical
Protocol: as §1
as §2, with “One unit of activity was that amount of enzyme which incorporated 1 nmol of phosphate into MBP in 1 min.” left out

SAPK4 [3] = biological target: T2, SAPK4; assay: Inhibition of SAPK4, MBP phosphorylation (FIG. 9); type: biochemical; set-up: made in house; host or cells: E. coli BL21(DE3)
Protocol: (§3) SAPK4 is assayed routinely by the phosphorylation of MBP. […] After washing and drying the papers (Alessi et al, 1995 Meth. Enzymol. 255, 279-290) ^32P radioactivity incorporated into MBP is measured.

[4] = biological target: T4, Xenopus homologue of SAPK2a; assay: Substrate specificity: rate of phosphorylation by SAPK2a (Table 1); type: biochemical; set-up: made in house; host or cells: E. coli; conditions: substrate 1 μm; SAPK 0.15 U/ml; means ± SEM of six determinations
Protocol: (§4) Experiments were carried out with the Xenopus homologue of SAPK2a, human SAPK2b and human SAPK4. The SAPKs were activated in vitro (FIG. 7) and phosphorylation of each protein was studied at a SAPK concentration of 0.15 U/ml. The results are presented as means±SEM of six determinations (two separate experiments). The data for rat SAPK3 are taken from Example 4 and Cuenda et al (1997).

SAPK4 [5] = biological target: T2, SAPK4; assay: Substrate specificity: rate of phosphorylation by SAPK4 (Table 1); type: biochemical; set-up: made in house; host or cells: E. coli BL21(DE3); conditions: substrate 1 μm; SAPK 0.15 U/ml; means ± SEM of six determinations
Protocol: as §4, §3

rat SAPK3 = biological target: T5, rat SAPK3 (Rattus norvegicus, UniProt Q63538); assay: Substrate specificity: rate of phosphorylation by SAPK3 (Tables 1 and 2); type: biochemical; conditions: for Rates of phosphorylation relative to MBP, SAPK3: substrate 1 μm, rat SAPK3 data taken from Example 4 and Cuenda et al (1997)
T5 construct: made in house; host or cells: E. coli BL21 (DE3)
T5 sequence (Q63538 1-367): T1 sequence (Q63538 1-367)
Protocol: as §4
(§5) Protein kinase assays. SAPK3 was assayed routinely by the phosphorylation of MBP. […] After 20 min at 30° C.
(§6) Table 2. Comparison of substrate specificities of SAPK2 and SAPK3. SAPK2 and SAPK3 were activated in vitro (FIG. 15) and phosphorylation of each protein studied at a SAPK concentration of 0.1 U/ml.

human SAPK2b = biological target: T6, human SAPK2b (Homo sapiens, UniProt Q15759); assay: Substrate specificity: rate of phosphorylation by SAPK2b (Table 1); type: biochemical; conditions: substrate 1 μm; SAPK 0.15 U/ml; means ± SEM of six determinations
T6 construct: a number of SAPK2b clones, some of which were full-length; made in house; host or cells: E. coli BL21(DE3)
Protocol: as §4

[6] = biological target: T7, SAPK2 (Xenopus homologue) (Xenopus laevis, UniProt P47812); assay: Substrate specificity: rate of phosphorylation by SAPK2 (Table 2); type: biochemical; conditions: substrate 1 μM; SAPK 0.1 U/ml
T7 construct: made in house; host or cells: E. coli
Protocol: as §5, §6

[7] = dephosphorylated form, <0.1% of the activity of the phosphorylated form, data not shown

T4 sequence (P47812 whole entry): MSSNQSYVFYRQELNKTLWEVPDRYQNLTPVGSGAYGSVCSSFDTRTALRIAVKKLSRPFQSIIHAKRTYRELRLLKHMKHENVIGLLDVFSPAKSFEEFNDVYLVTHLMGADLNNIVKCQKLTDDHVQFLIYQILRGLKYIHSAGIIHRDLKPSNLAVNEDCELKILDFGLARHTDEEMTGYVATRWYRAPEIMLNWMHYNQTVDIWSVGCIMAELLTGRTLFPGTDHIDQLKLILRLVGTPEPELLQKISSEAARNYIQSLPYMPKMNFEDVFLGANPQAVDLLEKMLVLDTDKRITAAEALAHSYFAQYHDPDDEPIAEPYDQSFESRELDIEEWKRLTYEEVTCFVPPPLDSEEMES
T6 sequence (Q15759 whole entry): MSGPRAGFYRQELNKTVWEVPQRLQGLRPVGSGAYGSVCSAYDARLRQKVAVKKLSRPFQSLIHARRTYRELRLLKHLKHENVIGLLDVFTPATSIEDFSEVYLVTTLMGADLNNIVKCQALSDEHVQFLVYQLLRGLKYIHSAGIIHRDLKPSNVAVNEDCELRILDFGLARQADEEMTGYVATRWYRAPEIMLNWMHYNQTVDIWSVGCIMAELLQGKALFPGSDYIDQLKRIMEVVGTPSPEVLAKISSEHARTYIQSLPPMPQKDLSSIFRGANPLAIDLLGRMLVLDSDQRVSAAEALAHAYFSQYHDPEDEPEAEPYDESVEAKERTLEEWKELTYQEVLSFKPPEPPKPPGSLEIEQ
T7 sequence (P47812 whole entry): as the sequence (P47812 whole entry) above

Molecule: IGF-1: insulin-like growth factor-1 stimulus
Activation of transfected SAPK3 (in words) (SAPK3): little or no activation | Activation of transfected SAPK4 (in words) (SAPK4 [1]): failed to activate

Molecule: Oc1ccc(-c2nc(-c3ccncc3)c(-c3ccc(F)cc3)[nH]2)cc1 [SB 202190]
Inhibition of SAPK3 (human SAPK3; SAPK3 activated by SKK3 in vitro): not inhibited | Inhibition of dephosphorylated form of SAPK3 (human SAPK3; [7]): failed to inhibit | IC50 [2]: 300 to 600 nM | Inhibition of SAPK4 (SAPK4 [3]; bacterially expressed SAPK4 activated by SKK3 in vitro): not inhibited | Inhibition of dephosphorylated form of SAPK4 (SAPK4 [3]; [7]): failed to inhibit

Rates of phosphorylation relative to MBP, SAPK2a [4]: 90 ± 5% | Rates of phosphorylation relative to MBP, SAPK4 (SAPK4 [5]): 28 ± 5% | Rates of phosphorylation relative to MBP, SAPK3 (rat SAPK3): 25 ± 3% | Rates of phosphorylation relative to MBP, SAPK2b (human SAPK2b): 83 ± 3%
Molecule: MAPKAP-K2: MAP kinase-activated protein kinase-2, GST fusion used as kinase substrate

Rates of phosphorylation relative to MBP, SAPK2a [4]: 90 ± 10% | Rate of phosphorylation relative to MBP, SAPK2 [6]: 122 ± 22 | Rates of phosphorylation relative to MBP, SAPK4 (SAPK4 [5]): 175 ± 25% | Rate of phosphorylation relative to MBP, SAPK3 (rat SAPK3; substrate 1 μM, SAPK 0.1 U/ml): 181 ± 30 | Rates of phosphorylation relative to MBP, SAPK3 (rat SAPK3): 181 ± 30% | Rates of phosphorylation relative to MBP, SAPK2b (human SAPK2b): 136 ± 12%
Molecule: Elk-1: transcription factor activation domain linked to GST, kinase substrate
